# T1: cynomolgus GDF-15 (cynomolgus monkey, UniProt G7PWZ3 193-308, limits assumed)
# T1 construct: also called NHP GDF-15
# T1 sequence (looked up): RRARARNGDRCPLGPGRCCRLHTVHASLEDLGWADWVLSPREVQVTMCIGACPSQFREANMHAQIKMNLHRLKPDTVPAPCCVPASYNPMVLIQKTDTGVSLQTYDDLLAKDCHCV
# T2: mouse GDF-15 (mouse, UniProt Q9Z0J7 189-303)
# T2 construct: also called murine GDF-15
# T2 sequence (looked up): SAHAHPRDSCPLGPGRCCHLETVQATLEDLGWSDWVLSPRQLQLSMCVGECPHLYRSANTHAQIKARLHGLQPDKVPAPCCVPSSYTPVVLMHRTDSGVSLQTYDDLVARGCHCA
# T3: rat GDF-15 (rat, UniProt Q9Z0J6 189-303)
# T3 sequence (looked up): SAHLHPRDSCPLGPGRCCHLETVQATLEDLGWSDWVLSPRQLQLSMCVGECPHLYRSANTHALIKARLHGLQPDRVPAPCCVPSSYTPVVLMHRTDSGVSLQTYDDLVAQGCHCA
# T4: recombinant human GDF-15 (human, UniProt Q99988 195-308)
# T4 construct: mature; also called hGDF-15; Growth Differentiation Factor-15
# T4 sequence (looked up): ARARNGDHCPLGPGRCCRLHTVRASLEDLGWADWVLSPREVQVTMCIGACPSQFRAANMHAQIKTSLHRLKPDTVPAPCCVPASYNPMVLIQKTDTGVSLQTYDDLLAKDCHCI
# Experiments:
# [1] = target: human complement protein C1q (human, UniProt P02745 23-245; P02746 28-253; P02747 29-245); test: ELISA, antibody incubated on coated human GDF-15, then 10 µg/ml human C1q, detection with HRP-conjugated anti-C1q antibody
# Procedure: Interaction of C1q protein and therapeutic antibody was determined in an ELISA-based approach with 10 μg/ml human C1q protein using a HRP-conjugated anti-C1q antibody for detection. Here, CTL-001 and the different isotype variants were incubated to prior coated human GDF-15 protein before C1q binding was obtained. Experiment was performed in triplicated and mean of absorption (A450 nm) was plotted against the antibody concentration.
# cynomolgus GDF-15 [2] = target: T1, cynomolgus GDF-15; test: SPR, Biacore T3000; CTL-002 on immobilized anti-human IgG Fc antibody, GDF-15 injected
# Procedure: (§1) In addition, the affinity to cynomolgus rat and mouse GDF-15 was measured (see Table 2).
# (§2) All experiments were performed in 10 mM HEPES buffer, pH 7.4, 150 mM NaCl, 3.4 mM EDTA and 0.05% Tween. anti-human IgG Fc specific antibody (Jackson, Order #109-005-008, Lot #111148) was covalently immobilized by EDC/NHS chemistry on Biacore CM5 Chips (GE Healthcare, Order #61144275, Lot #10236645). For kinetic characterization of the antigen-antibody interaction pulses of increasing GDF-15 concentrations (e.g. 156.3 pM, 312 pM, 625 pM, 1,250 pM) were injected at a flow rate of 30 μl/min. After each measurement cycle (8 min of association followed by 30 min of dissociation) the antibody-antigen complex was resolved by regeneration of the surface with 10 mM glycine-HCl at pH 2.0. […] For global fit analysis only, these antigen concentrations were taken into account, which allowed the analysis following the Langmuir 1:1 binding model or 1:1 binding with drifting baseline.
# mouse GDF-15 = target: T2, mouse GDF-15; test: as above
# Procedure: as §1, §2
# rat GDF-15 = target: T3, rat GDF-15; test: as above
# Procedure: as §1, §2
# recombinant human GDF-15 [3] = target: T4, recombinant human GDF-15; test: as above
# Procedure: as §1, §2
# recombinant human GDF-15 [4] = target: T4, recombinant human GDF-15; test: cell-based or functional assay
# recombinant human GDF-15 [5] = target: T4, recombinant human GDF-15; test: SPR (Biacore T3000): CTL-002 on the flow cell (per paragraph 142 an anti-human IgG Fc antibody is immobilized on the CM5 chip), human GDF-15 injected at 247, 370, 556, 833 and 1250 pM, global fit; one representative measurement of three
# Procedure: as §2
# cynomolgus GDF-15 [6] = target: T1, cynomolgus GDF-15; test: KD from PK-PD model fitted to in vivo NHP data (not a direct binding assay); in vivo KD fitted by the NHP PK-PD model, not an in vitro binding assay
# human complement protein C1q, sequence (P02745 23-245 limits assumed, chain 1 of 3): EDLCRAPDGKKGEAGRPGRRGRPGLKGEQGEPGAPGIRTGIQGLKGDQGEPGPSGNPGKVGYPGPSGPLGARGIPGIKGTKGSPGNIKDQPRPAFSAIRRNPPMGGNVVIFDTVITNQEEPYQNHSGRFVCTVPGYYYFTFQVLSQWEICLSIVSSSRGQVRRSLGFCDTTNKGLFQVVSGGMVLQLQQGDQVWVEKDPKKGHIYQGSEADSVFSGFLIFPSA
# human complement protein C1q, sequence (P02746 28-253 limits assumed, chain 2 of 3): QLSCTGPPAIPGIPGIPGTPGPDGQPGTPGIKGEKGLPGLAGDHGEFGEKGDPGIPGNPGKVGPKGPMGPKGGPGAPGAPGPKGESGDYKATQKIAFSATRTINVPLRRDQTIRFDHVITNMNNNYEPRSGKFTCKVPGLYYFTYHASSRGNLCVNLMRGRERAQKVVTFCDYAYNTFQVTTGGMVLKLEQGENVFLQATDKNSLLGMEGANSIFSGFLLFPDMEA
# human complement protein C1q, sequence (P02747 29-245 limits assumed, chain 3 of 3): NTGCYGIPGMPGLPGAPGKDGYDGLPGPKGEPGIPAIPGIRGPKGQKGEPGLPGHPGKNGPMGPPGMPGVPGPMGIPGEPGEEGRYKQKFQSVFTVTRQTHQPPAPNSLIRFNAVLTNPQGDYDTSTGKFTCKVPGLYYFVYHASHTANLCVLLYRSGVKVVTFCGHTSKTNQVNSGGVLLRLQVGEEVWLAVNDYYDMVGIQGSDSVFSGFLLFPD
Kd (cynomolgus GDF-15 [2]) [pM],Kd (mouse GDF-15) [pM],Kd (rat GDF-15) [pM],Kd (recombinant human GDF-15 [3]) [pM],"EC50, rescue of CD8+ T-cell adhesion (flow-adhesion assay) (recombinant human GDF-15 [4]) [µg/mL]","EC50, reversal of GDF-15 mediated inhibition of T cell adhesion (in vitro flow-adhesion assay, 50 ng/ml GDF-15) (recombinant human GDF-15 [4]) [µg/mL]",EC50 of CTL-002 in the flow-adhesion assay with T cells (recombinant human GDF-15 [4]) [µg/mL],Kd (recombinant human GDF-15 [5]) [pM],Kd (cynomolgus GDF-15 [6]) [pM],Binder,binding result [1]
108,9760,449,38.3,~0.7,0.69 to 0.725,0.707,33.8,19,"CTL-002 (antibody, human IgG4 S228P, kappa, Humanized, hinge-stabilized IgG4 (IgG4 S228P) derived from mouse antibody B1-23; also called CTL-001 IgG4*; CTL-001 IgG4) heavy: not shown light: DIVLTQSPSFLSASVGDRVTITCKASQNVGTNVAWFQQKPGKSPKALIYSASYRYSGVPDRFTGSGSGTEFTLTISSLQPEDFAAYFCQQYNNFPYTFGGGTKLEIKRTVAAPSVFIFPPSDEQLKSGTASVVCLLNNFYPREAKVQWKVDNALQSGNSQESVTEQDSKDSTYSLSSTLTLSKADYEKHKVYACEVTHQGLSSPVTKSFNRGEC",no binding (tested: about 25 µg/ml (leftmost visible marker))
,,,,,,,,,"CTL-001 (antibody, human IgG1, kappa, Humanized IgG1 with a kappa light chain; also called H1L5; B1-23-H1L5) heavy: not shown light: DIVLTQSPSFLSASVGDRVTITCKASQNVGTNVAWFQQKPGKSPKALIYSASYRYSGVPDRFTGSGSGTEFTLTISSLQPEDFAAYFCQQYNNFPYTFGGGTKLEIKRTVAAPSVFIFPPSDEQLKSGTASVVCLLNNFYPREAKVQWKVDNALQSGNSQESVTEQDSKDSTYSLSSTLTLSKADYEKHKVYACEVTHQGLSSPVTKSFNRGEC",no binding (tested: about 25 µg/ml (leftmost visible marker))

# Source: patent US20260055172A1 (CATALYM, published 2026)
